Assay results reported in EP1666595A1 (Beth Israel Deaconess Medical Center, Inc., dated 2006).

T1: SHP-2 (endogenous, in BaF3, P210BCR-ABL BaF3 and BAC1.2F5 cells) (UniProt P35235 2-593)
T1 sequence (looked up): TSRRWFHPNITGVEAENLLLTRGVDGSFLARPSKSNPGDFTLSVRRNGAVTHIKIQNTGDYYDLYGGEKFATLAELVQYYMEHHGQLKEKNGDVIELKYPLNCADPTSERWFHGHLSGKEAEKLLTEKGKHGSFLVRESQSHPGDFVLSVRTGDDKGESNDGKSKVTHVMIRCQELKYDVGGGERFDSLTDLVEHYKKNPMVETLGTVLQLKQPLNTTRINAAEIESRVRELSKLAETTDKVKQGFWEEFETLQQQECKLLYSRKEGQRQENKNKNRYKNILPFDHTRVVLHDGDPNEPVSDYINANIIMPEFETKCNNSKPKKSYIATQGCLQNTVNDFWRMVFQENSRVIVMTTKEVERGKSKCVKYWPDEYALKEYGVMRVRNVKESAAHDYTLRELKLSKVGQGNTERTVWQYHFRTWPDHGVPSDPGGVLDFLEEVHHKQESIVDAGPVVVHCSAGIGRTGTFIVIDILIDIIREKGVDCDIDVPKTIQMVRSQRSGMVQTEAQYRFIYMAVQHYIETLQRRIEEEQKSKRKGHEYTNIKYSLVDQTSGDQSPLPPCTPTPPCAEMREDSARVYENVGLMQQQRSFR

B1: Crk (endogenous, in BaF3 cells) (other, UniProt Q64010 2-304, looked up)
chain: AGNFDSEERSSWYWGRLSRQEAVALLQGQRHGVFLVRDSSTSPGDYVLSVSENSRVSHYIINSSGPRPPVPPSPAQPPPGVSPSRLRIGDQEFDSLPALLEFYKIHYLDTTTLIEPVARSRQGSGVILRQEEAEYVRALFDFNGNDEEDLPFKKGDILRIRDKPEEQWWNAEDSEGKRGMIPVPYVEKYRPASASVSALIGGNQEGSHPQPLGGPEPGPYAQPSVNTPLPNLQNGPIYARVIQKRVPNAYDKTALALEVGELVKVTKINVSGQWEGECNGKRGHFPFTHVRLLDQQNPDEDFS
B2: Gab2HA (HA-tagged wild type Gab2) (other, not shown: small tags and cut ends)
chain: MSGGGGDDVVCTGWLRKSPPEKKLRRYAWKKRWFILRSGRMSGDPDVLEYYKNEHSKKPLRIINLNLCEQVDAGLTFNKKELQDSFVFDIKTSERTFYLVAETEADMNKWVQSICQICGFNQAEESTDSLRNLSSASHGPRSSPAEFSSSQHLLRERKSSAPSHSSQPTLFTFEPPVSSHMQPTLSTSAPQEYLYLHQCISRRTENARSASFSQGTRQKSDTAVQKLAQSNGHCINGVGGQVHGFYSLPKPSRHNTEFKDSTYDLPRSLASHGHTKSSLTGSETDNEDVYTFKMPSNTLCRELGDLLVDNMDVPTTPLSAYQIPRTFTLDKNHNAMTVATPGDSAIAPPPRPPKPSQAETSQWGSIQQRPPISENSRSVAATIPRRNTLPAMDNSRLHRASSCETYEYPARGSGESASWSAEPPGKTAVGRSNSASSDDNYVPMNPGSSTLLAMERPGDNSQSVYIPMSPGPHHFDPLGYPSTALPIHRGPSRGSEIQPPPVNRNLKPDRKAKPTPLDLRNNTVIDELPFKSPVTKSWSRINSHTFNSSSSQYCRPISTQSITSTDSGDSEENYVPMQNPVSASPVPSGTNSPAPKKSTGSVDYLALDFQPGSPSPHRKPSTSSVTSDEKVDYVQVDKEKTQALQNTMQEWTDVRQSSEPSKGAKL
modifications: tyrosyl phosphorylated upon IL-3 stimulation
B3: Crk-L (endogenous, in BaF3 cells) (other, UniProt P47941 1-303, looked up)
chain: MSSARFDSSDRSAWYMGPVTRQEAQTRLQGQRHGMFLVRDSSTCPGDYVLSVSENSRVSHYIINSLPNRRFKIGDQEFDHLPALLEFYKIHYLDTTTLIEPAPRYPSPPVGSVSAPNLPTAEENLEYVRTLYDFPGNDAEDLPFKKGELLVIIEKPEEQWWSARNKDGRVGMIPVPYVEKLVRSSPHGKHGNRNSNSYGIPEPAHAYAQPQTTTPLPTVASTPGAAINPLPSTQNGPVFAKAIQKRVPCAYDKTALALEVGDIVKVTRMNINGQWEGEVNGRKGLFPFTHVKIFDPQNPDDNE
notes: Named in brackets next to Crk

Assays:
[1] = target: T2, Gab2 (endogenous, in BaF3, P210BCR-ABL BaF3 and BAC1.2F5 cells) (Mus musculus (Mouse), UniProt Q9Z1S8 1-665, tyrosyl phosphorylated upon stimulation; Y604 and Y633 'both sites are highly phosphorylated'); experiment: immunoprecipitation and immunoblotting, BaF3 cells
T2 construct: BaF3 is a murine line, and KIAA0571 is called the possible human homolog; also called p97; p97/Gab2

[2] = target: B2; experiment: immunoprecipitation and immunoblotting, transfected BaF3 cells
[3] = target: T1, SHP-2 (endogenous, in BaF3, P210BCR-ABL …); experiment: cell-based or functional assay

| binding result [1] | binding result [2] | basal c-fos luciferase activity [3] | Binder |
| --- | --- | --- | --- |
| no binding | no binding |  | B1 |
|  |  | ~2 fold | B2 |
| no binding | no binding |  | B3 |
